Paper PMC4072508, “Genome-Wide Prediction and Validation of Peptides That Bind Human Prosurvival Bcl-2 Proteins” (PLoS Computational Biology, 2014)

T1: Mcl-1, Q07820
T1 chain: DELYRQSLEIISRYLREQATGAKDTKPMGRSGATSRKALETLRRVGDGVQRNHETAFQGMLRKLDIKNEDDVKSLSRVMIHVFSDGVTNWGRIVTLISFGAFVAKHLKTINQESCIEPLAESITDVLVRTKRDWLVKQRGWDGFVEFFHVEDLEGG


The binders below were run against Bcl-xL, Q07817 (assay: peptide SPOT array, c-Myc-tagged receptor at 1 uM or 100 nM, anti-c-Myc-Cy3).
Sequence of Bcl-xL, Q07817 (Q07817 1-209): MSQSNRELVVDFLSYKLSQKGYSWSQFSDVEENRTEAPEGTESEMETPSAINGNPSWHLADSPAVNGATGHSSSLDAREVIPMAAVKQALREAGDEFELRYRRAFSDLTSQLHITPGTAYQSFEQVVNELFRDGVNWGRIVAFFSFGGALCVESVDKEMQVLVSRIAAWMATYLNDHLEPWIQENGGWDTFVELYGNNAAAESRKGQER

Row | SPOT signal as a fraction of Bim BH3's signal on the same receptor and array | Binder
1 | 0.03 | NKTMTQLSSTDARCAKDILGFAVMFF [PKD2L1]
2 | 0.01 | CALLGSTGERICLALDSAGGNLCFTV
3 | 0.03 | RRTSINVVRHLGIVGECNIQFALHPT
4 | 0.14 | RRTSINVVRHLGIVLECNIQFALHPT
5 | 0.04 | NKRHRPIGIGVQGLADAFILMRYPFE [RRM1]
6 | 0.03 | CGDLASLSIDIWTLLEEVDGRRLVVA
7 | 0.02 | HGTSSRIGSSDKSVGEVMAIGRTFEE
8 | 0.02 | SAGVPVRGVEDQAAAERFARCFGRTD
9 | 0.01 | ALKKADVGFADGIAGTDVAKEASDII [ATP2B1]
10 | 0.29 | IVGGCVVGIAMARFLDFIRGMLKLIL [DIRC2]
11 | 0.02 | FRLAQMCGLHDVVHADELEELINYYQ [CLTC]
12 | 0.12 | SAGVPVRGVELQAAAERFARCFGRTD
13 | 0.03 | RRTSINVVRHDGIVGECNIQFALHPT
14 | 0.18 | RVSWNITGTVLASSLDDGCVRLWKAN [SEH1L]

Further lines, the binder ahead of its results:

Row | Binder | SPOT signal as a fraction of Bim BH3's signal on the same receptor and array
15 | QQMHHNAATAMAQRADMLRGLSPRES [NCOR2] | 0.06
16 | HPRKESQVRQLAWVLDGVWVSIRLDS [SPAG9] | 0.02
17 | PSLSKELTSSDAGVGDVSFDSDSQFP [CRTC1] | 0.01
18 | ELQAPATVQSLGLLLDRLCVGAAGGF [CDC42BPG] | 0.01
19 | CGDLASLSIDIWTLGEEVDGRRLVVA | 0.02
20 | CALLGSTGERICLAGDSAGGNLCFTV | 0.01
21 | RIEMWISILELNELGEYAAVELHQAK [KIF13A] | 0.02
22 | HPRRESQVRQDAWIGDGVWVSIRLDS [MAPK8IP3] | 0.02
23 | RLAHEHHCLRDKILGDCYYCVSGLPE [ADCY8] | 0.02
24 | GLTWDPVGKYDASQADDRSLKVWRTL [HIRA] | 0.17
25 | LGLGELAGLTVANELDSLTYDIANNK [STRN] | 0.02
26 | PPDAHVLGKALEAAGQDFSLDLRSTG [CIITA] | 0.02
27 | AALFLHAGCQLLTAGEDGKVQVWSGS [TEP1] | 0.02
28 | LNAVNYISTVLADWADNVFFLQLQQA [RINT1] | 0.02
29 | DSLAKFAGRKLKDCLEDLLVEISEVL [PCM1] | 0.02
30 | SPYVFNGGTILAIALEDFAIVASDTR [PSMB1] | 0.02
31 | DHTDGVVACADGLIGDLCTAFGKDVL [KPNB1] | 0.02

Target: T1, Mcl-1, Q07820
Test: as above

Row | SPOT signal as a fraction of Bim BH3's signal on the same receptor and array | Binder
32 | 0.02 | NKTMTQLSSTDARCAKDILGFAVMFF [PKD2L1]
33 | 0.01 | CALLGSTGERICLALDSAGGNLCFTV
34 | 0.02 | RRTSINVVRHLGIVGECNIQFALHPT
35 | 0.1 | RRTSINVVRHLGIVLECNIQFALHPT
36 | 0.04 | NKRHRPIGIGVQGLADAFILMRYPFE [RRM1]
37 | 0.03 | CGDLASLSIDIWTLLEEVDGRRLVVA
38 | 0.02 | HGTSSRIGSSDKSVGEVMAIGRTFEE
39 | 0.02 | SAGVPVRGVEDQAAAERFARCFGRTD
40 | 0.01 | ALKKADVGFADGIAGTDVAKEASDII [ATP2B1]
41 | 0.18 | IVGGCVVGIAMARFLDFIRGMLKLIL [DIRC2]
42 | 0.02 | FRLAQMCGLHDVVHADELEELINYYQ [CLTC]
43 | 0.04 | SAGVPVRGVELQAAAERFARCFGRTD
44 | 0.03 | RRTSINVVRHDGIVGECNIQFALHPT
45 | 0.08 | RVSWNITGTVLASSLDDGCVRLWKAN [SEH1L]

The next lines start with the binder.

Row | Binder | SPOT signal as a fraction of Bim BH3's signal on the same receptor and array
46 | QQMHHNAATAMAQRADMLRGLSPRES [NCOR2] | 0.01
47 | HPRKESQVRQLAWVLDGVWVSIRLDS [SPAG9] | 0.02
48 | PSLSKELTSSDAGVGDVSFDSDSQFP [CRTC1] | 0.01
49 | ELQAPATVQSLGLLLDRLCVGAAGGF [CDC42BPG] | 0.01
50 | CGDLASLSIDIWTLGEEVDGRRLVVA | 0.02
51 | CALLGSTGERICLAGDSAGGNLCFTV | 0.01
52 | RIEMWISILELNELGEYAAVELHQAK [KIF13A] | 0.02
53 | HPRRESQVRQDAWIGDGVWVSIRLDS [MAPK8IP3] | 0.02
54 | RLAHEHHCLRDKILGDCYYCVSGLPE [ADCY8] | 0.01
55 | GLTWDPVGKYDASQADDRSLKVWRTL [HIRA] | 0.23
56 | LGLGELAGLTVANELDSLTYDIANNK [STRN] | 0.01
57 | PPDAHVLGKALEAAGQDFSLDLRSTG [CIITA] | 0.01
58 | AALFLHAGCQLLTAGEDGKVQVWSGS [TEP1] | 0.02
59 | LNAVNYISTVLADWADNVFFLQLQQA [RINT1] | 0.03
60 | DSLAKFAGRKLKDCLEDLLVEISEVL [PCM1] | 0.02
61 | SPYVFNGGTILAIALEDFAIVASDTR [PSMB1] | 0.01
62 | DHTDGVVACADGLIGDLCTAFGKDVL [KPNB1] | 0.01
